Data taken from PMC6793842.

B1: unnamed (parent)
chain 1: FENAIKKTKNQENNLTLLPIKSTEEEKDDIKNGKDIKKEIDNDKENIKTNNAKDHSTYIKSYLNTNVNDGLKYLFIPSHNSFIKKYSVFNQINDGMLLNEKNDVKNNEDYKNVDYKNVNFLQYDFKELSNYNIANSIDILQEKEGHLDFVIIPHYTFLDYYKHLSYNSIYHKYSTHGKYIAVDAFIKKINERYDQVKSKCNDIKNDLIATIKKLEHPYDINNKNDDSYRYDISEEIDDKSEETDDETEEVEDSIQDTDSNHTPSNKKKNDLMNRTFKKMMDEYNTKKKKLIKCIKNHENDFNKICMDMKNYGTNLFEQLSCYNNNFCNTNGIRYHYDEYIHKLILSVKSKNLNKDLSDMTNILQQSELLLTNLNKKMGSYIYIDTIKFIHKEMKHIFNRIEYHTKIINDKTKIIQDKIKLNIWRTFQKDELLKRILDMSNEYSLFITSDHLRQMLYNTFYSKEKHLNNIFHHLIYVLQMKFNDVPIKMEYFQTYKKNKPLTQ
chain 2: EPGTVFTTVEDLGSKILLTCSLNDSATEVTGHRWLKGGVVLKEDALPGQKTEFKVDSDDQWGEYSCVFLPEPMGTANIQLHGPPRVKAVKSSEHINEGETAMLVCKSESVPPVTDWAWYKITDSEDKALMNGSESRFFVSSSQGRSELHIENLNMEADPGQYRCNGTSSKGSDQAIITLRVRSHLAAL

Variants of: B1
Assay: SPR
Conditions: read off a plot; for response (response units): with partner chain of the complex shown, plateau of the highest curve of four 2-fold serial dilutions (600 to 75 nM); for screen value: with partner chain of the complex shown;

Variant | response (response units) | screen value [s]
chain 1 FENAIKKTKNQENNLTLLPIKSTEEEKDDIKNGKDIKKEIDNDKENIKTNNAKDHSTYIKSYLNTNVNDGLKYLFIPSHNSFIKKYSVFNQINDGMLLNEKNDVKNNEDYKNVDYKNVNFLQYDFKELSNYNIANSIDILQEKEGHLDFVIIPHYTFLDYYKHLSYNSIYHKYSTHGKYIAVDAFIKKINERYDKVKSKCNDIKNDLIATIKKLEHPYDINNKNDDSYRYDISEEIDDKSEETDDETEEVEDSIQDTDSNHTPSNKKKNDLMNRTFKKMMDEYNTKKKKLIKCIKNHENDFNKICMDMKNYGTNLFEQLSCYNNNFCNTNGIRYHYDEYIHKLILSVKSKNLNKDLSDMTNILQQSELLLTNLNKKMGSYIYIDTIKFIHKEMKHIFNRIEYHTKIINDKTKIIQDKIKLNIWRTFQKDELLKRILDMSNEYSLFITSDHLRQMLYNTFYSKEKHLNNIFHHLIYVLQMKFNDVPIKMEYFQTYKKNKPLTQ [chain 1 Q195K] | 360 | 2.4
chain 1 FENAIKKTKNQENNLTLLPIKSTEEEKDDIKNGKDIKKEIDNDKENIKTNNAKDHSTYIKSYLNTNVNDGLKYLFIPSHNSFIKKYSVFNQINDGMLLNEKNDVKNNEDYKNVDYKNVNFLQYDFKELSNYNIANSIDILQEKEGHLDFVIIPHYTFLDYYKHLSYNSIYHKYSTYGKYIAVDAFIKKINERYDQVKSKCNDIKNDLIATIKKLEHPYDINNKNDDSYRYDISEEIDDKSEETDDETEEVEDSIQDTDSNHTPSNKKKNDLMNRTFKKMMDEYNTKKKKLIKCIKNHENDFNKICMDMKNYGTNLFEQLSCYNNNFCNTNGIRYHYDEYIHKLILSVKSKNLNKDLSDMTNILQQSELLLTNLNKKMGSYIYIDTIKFIHKEMKHIFNRIEYHTKIINDKTKIIQDKIKLNIWRTFQKDELLKRILDMSNEYSLFITSDHLRQMLYNTFYSKEKHLNNIFHHLIYVLQMKFNDVPIKMEYFQTYKKNKPLTQ [chain 1 H176Y] | 340 | 2.4
chain 1 FENAIKKTKNQENNLTLLPIKSTEEEKDDIKNGKDIKKEIDNDKENIKTNNAKDHSTYIKSYLNTNVNDGLKYLFIPSHNSFIKKYSVFNQINDGMLLNEKNDVKNNEDYKNVDYKNVNFLQYHFKELSNYNIANSIDILQEKEGHLDFVIIPHYTFLDYYKHLSYNSIYHKYSTHGKYIAVDAFIKKINERYDQVKSKCNDIKNDLIATIKKLEHPYDINNKNDDSYRYDISEEIDDKSEETDDETEEVEDSIQDTDSNHTPSNKKKNDLMNRTFKKMMDEYNTKKKKLIKCIKNHENDFNKICMDMKNYGTNLFEQLSCYNNNFCNTNGIRYHYDEYIHKLILSVKSKNLNKDLSDMTNILQQSELLLTNLNKKMGSYIYIDTIKFIHKEMKHIFNRIEYHTKIINDKTKIIQDKIKLNIWRTFQKDELLKRILDMSNEYSLFITSDHLRQMLYNTFYSKEKHLNNIFHHLIYVLQMKFNDVPIKMEYFQTYKKNKPLTQ [chain 1 D124H] | 220 | 2.6
